The values below come from patent US20190375846A1.

The target of this test is human GITR at the cell surface (human) (UniProt Q9Y5U5). Briefly: cell-based or functional assay.
human GITR at the cell surface (human), sequence (Q9Y5U5 26-241): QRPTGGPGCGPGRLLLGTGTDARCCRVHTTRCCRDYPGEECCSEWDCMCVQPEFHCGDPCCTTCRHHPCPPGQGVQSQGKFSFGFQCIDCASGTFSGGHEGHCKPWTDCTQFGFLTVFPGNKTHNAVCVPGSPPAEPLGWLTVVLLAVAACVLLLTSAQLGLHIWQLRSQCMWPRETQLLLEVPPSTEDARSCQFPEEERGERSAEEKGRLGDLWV

Consider “HA-tagged human GITRL protein cross-linked with anti-HA tag antibody (from UniProt Q9UNG2 52-177) (ligand)”, for which the concentration of maximum signal, GITR agonism reporter assay was 1000 to 2000 ng/mL.
